Among the data in publication PMC7094404 (Archives of Biochemistry and Biophysics, 2008) are Kd and koff values, retold here.

The data set concerns the molecule itself. Briefly: AUC.

B1: SARS-CoV main protease, full-length wild type, C-terminal His6 (enzyme)
chain: SGFRKMAFPSGKVEGCMVQVTCGTTTLNGLWLDDTVYCPRHVICTAEDMLNPNYEDLLIRKSNHSFLVQAGNVQLRVIGHSMQNCLLRLKVDTSNPKTPKYKFVRIQPGQTFSVLACYNGSPSGVYQCAMRPNHTIKGSFLNGSCGSVGFNIDYDCVSFCYMHHMELPTGVHAGTDLEGKFYGPFVDRQTAQAAGTDTTITLNVLAWLYAAVINGDRWFLNRFTTTLNDFNLVAMKYNYEPLTQDHVDILGPLSAQTGIAVLDMCAALKELLQNGMNGRTILGSTILEDEFTPFDVVRQCSGVTFQ
In the case of B1, the affinity, expressed as Kd, was 80 ± 5 nM and the koff (as a rule, the first-order rate constant of dissociation) was found to be 0.01 ± 0.001 s⁻¹.
